According to patent US20040161821A1 (COLD SPRING HARBOR LABORATORY, published 2004):

Key:
[1] = biological target: T1, chimeric receptor CSF-MET, P07333
T1 chain: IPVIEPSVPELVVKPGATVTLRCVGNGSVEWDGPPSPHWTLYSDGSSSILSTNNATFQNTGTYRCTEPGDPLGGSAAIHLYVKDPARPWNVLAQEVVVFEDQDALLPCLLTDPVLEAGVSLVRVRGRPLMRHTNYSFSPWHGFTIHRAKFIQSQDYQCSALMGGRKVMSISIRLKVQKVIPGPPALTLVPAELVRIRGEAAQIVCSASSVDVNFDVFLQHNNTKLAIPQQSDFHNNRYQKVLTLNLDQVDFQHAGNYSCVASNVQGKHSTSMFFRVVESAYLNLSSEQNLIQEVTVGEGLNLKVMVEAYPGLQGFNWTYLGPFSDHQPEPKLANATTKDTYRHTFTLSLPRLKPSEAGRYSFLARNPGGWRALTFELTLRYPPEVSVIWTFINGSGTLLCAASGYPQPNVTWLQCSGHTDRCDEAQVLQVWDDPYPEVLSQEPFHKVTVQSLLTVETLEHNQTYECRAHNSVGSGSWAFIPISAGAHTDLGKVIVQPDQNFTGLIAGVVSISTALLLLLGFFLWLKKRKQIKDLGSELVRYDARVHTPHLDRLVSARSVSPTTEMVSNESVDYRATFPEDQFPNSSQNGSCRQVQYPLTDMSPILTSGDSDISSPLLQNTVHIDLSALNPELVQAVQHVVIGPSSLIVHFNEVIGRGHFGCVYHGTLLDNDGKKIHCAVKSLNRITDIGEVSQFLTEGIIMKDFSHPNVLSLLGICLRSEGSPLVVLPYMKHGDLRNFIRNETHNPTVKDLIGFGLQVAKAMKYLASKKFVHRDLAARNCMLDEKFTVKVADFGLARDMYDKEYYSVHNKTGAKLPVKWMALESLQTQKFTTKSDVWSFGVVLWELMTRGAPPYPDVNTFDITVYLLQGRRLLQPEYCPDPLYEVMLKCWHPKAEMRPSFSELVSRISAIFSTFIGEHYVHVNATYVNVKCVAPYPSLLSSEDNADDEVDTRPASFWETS

[2] = biological target: T2, E-cadherin (human, UniProt P12830 155-882); test: amylose pull-down from pervanadate-treated T-47D lysate, anti-E-cadherin immunoblot
T2 construct: Endogenous protein in lysate of pervanadate-treated T-47D cells
T2 sequence (looked up): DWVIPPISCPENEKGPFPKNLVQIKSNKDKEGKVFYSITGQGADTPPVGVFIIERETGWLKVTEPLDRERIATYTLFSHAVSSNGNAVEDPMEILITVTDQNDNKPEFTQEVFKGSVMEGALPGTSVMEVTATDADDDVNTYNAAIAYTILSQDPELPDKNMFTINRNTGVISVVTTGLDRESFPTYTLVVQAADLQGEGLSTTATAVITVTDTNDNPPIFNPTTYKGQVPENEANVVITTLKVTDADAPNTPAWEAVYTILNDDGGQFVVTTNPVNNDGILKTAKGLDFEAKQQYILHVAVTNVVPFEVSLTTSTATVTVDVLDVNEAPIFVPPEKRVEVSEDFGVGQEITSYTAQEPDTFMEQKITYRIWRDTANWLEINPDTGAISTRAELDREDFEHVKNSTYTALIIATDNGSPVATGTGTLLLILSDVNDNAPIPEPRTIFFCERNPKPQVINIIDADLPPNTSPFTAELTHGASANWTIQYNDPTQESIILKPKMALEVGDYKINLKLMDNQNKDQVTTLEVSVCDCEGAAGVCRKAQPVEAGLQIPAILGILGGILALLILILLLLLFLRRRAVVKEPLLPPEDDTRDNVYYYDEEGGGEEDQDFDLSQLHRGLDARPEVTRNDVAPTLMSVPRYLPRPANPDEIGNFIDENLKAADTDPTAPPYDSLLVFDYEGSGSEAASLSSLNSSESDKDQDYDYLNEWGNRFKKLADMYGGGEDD
Procedure: (§1) Substrate trapping—Prior to lysis, T-47D and T-47D/Met cells were treated with 50 μM pervanadate for 20 minutes, whereas MDA-MB-231 cells were treated with 100 μM pervanadate for 20 minutes. Cells were rinsed with PBS and lysed in 1% NP-40 buffer (1% NP-40,150 mM NaCl, 20 mM HEPES pH7.5, 1 mM EDTA, 5 μg/ml aprotinin, 5 μg/ml leupeptin, 1 mM benzamidine). For trapping experiments in vitro, the lysis buffer also contained 5 mM iodoacetic acid to inhibit cellular PTPs irreversibly. After incubation on ice for 5 minutes, dithiothreitol was added to a final concentration of 10 mM to inactivate any unreacted iodoacetic acid. Insoluble material was removed by centrifugation. […] Lysates and fusion proteins were incubated at 4° C. for 2 hours and then washed extensively with 1% NP-40 buffer. Tyrosine phosphorylated proteins were immunoprecipitated using 0.1 mg T-47D cell lysate and a combination of 5 μl each of anti-phosphotyrosine antibodies PT-66 and 4G10. Lysate and antibodies were incubated at 4° C. for 2 hours and washed extensively with 1% NP-40 buffer.

[3] = biological target: T3, Met, the HGF/SF receptor (Homo sapiens (Human), UniProt P08581 25-1390, tyrosine phosphorylated (cells treated with pervanadate); sites not stated); test: amylose pull-down from pervanadate-treated T-47D/Met lysate, anti-Met immunoblot
T3 construct: also called HGF-R; HGF/SF receptor Met
Procedure: as §1

B1: full length DEP-1(CS) (protein)
chain: AGGTPSPIPDPSVATVATGENGITQISSTAESFHKQNGTGTPQVETNTSEDGESSGANDSLRTPEQGSNGTDGASQKTPSSTGPSPVFDIKAVSISPTNVILTWKSNDTAASEYKYVVKHKMENEKTITVVHQPWCNITGLRPATSYVFSITPGIGNETWGDPRVIKVITEPIPVSDLRVALTGVRKAALSWSNGNGTASCRVLLESIGSHEELTQDSRLQVNISDLKPGVQYNINPYLLQSNKTKGDPLGTEGGLDASNTERSRAGSPTAPVHDESLVGPVDPSSGQQSRDTEVLLVGLEPGTRYNATVYSQAANGTEGQPQAIEFRTNAIQVFDVTAVNISATSLTLIWKVSDNESSSNYTYKIHVAGETDSSNLNVSEPRAVIPGLRSSTFYNITVCPVLGDIEGTPGFLQVHTPPVPVSDFRVTVVSTTEIGLAWSSHDAESFQMHITQEGAGNSRVEITTNQSIIIGGLFPGTKYCFEIVPKGPNGTEGASRTVCNRTVPSAVFDIHVVYVTTTEMWLDWKSPDGASEYVYHLVIESKHGSNHTSTYDKAITLQGLIPGTLYNITISPEVDHVWGDPNSTAQYTRPSNVSNIDVSTNTTAATLSWQNFDDASPTYSYCLLIEKAGNSSNATQVVTDIGITDATVTELIPGSSYTVEIFAQVGDGIKSLEPGRKSFCTDPASMASFDCEVVPKEPALVLKWTCPPGANAGFELEVSSGAWNNATHLESCSSENGTEYRTEVTYLNFSTSYNISITTVSCGKMAAPTRNTCTTGITDPPPPDGSPNITSVSHNSVKVKFSGFEASHGPIKAYAVILTTGEAGHPSADVLKYTYDDFKKGASDTYVTYLIRTEEKGRSQSLSEVLKYEIDVGNESTTLGYYNGKLEPLGSYRACVAGFTNITFHPQNKGLIDGAESYVSFSRYSDAVSLPQDPGVICGAVFGCIFGALVIVTVGGFIFWRKKRKDAKNNEVSFSQIKPKKSKLIRVENFEAYFKKQQADSNCGFAEEYEDLKLVGISQPKYAAELAENRGKNRYNNVLPYDISRVKLSVQTHSTDDYINANYMPGYHSKKDFIATQGPLPNTLKDFWRMVWEKNVYAIIMLTKCVEQGRTKCEEYWPSKQAQDYGDITVAMTSEIVLPEWTIRDFTVKNIQTSESHPLRQFHFTSWPDHGVPDTTDLLINFRYLVRDYMKQSPPESPILVHSSAGVGRTGTFIAIDRLIYQIENENTVDVYGIVYDLRMHRPLMVQTEDQYVFLNQCVLDIVRSQKDSKVDLIYQNTTAMTIYENLAPVTTFGKTNGYIA
phosphorylation of Met (phospho-specific antibodies) [1]: no effect on phosphorylation of Met was observed with the expression of DEP-1(CS) | phosphorylation of Tyr^1349 of Met (phospho-specific antibody) [1]: no change in the phosphorylation level of Tyr^1349 was observed in the presence of DEP-1(CS)

B2: full length wild type DEP-1 (protein)
chain: AGGTPSPIPDPSVATVATGENGITQISSTAESFHKQNGTGTPQVETNTSEDGESSGANDSLRTPEQGSNGTDGASQKTPSSTGPSPVFDIKAVSISPTNVILTWKSNDTAASEYKYVVKHKMENEKTITVVHQPWCNITGLRPATSYVFSITPGIGNETWGDPRVIKVITEPIPVSDLRVALTGVRKAALSWSNGNGTASCRVLLESIGSHEELTQDSRLQVNISDLKPGVQYNINPYLLQSNKTKGDPLGTEGGLDASNTERSRAGSPTAPVHDESLVGPVDPSSGQQSRDTEVLLVGLEPGTRYNATVYSQAANGTEGQPQAIEFRTNAIQVFDVTAVNISATSLTLIWKVSDNESSSNYTYKIHVAGETDSSNLNVSEPRAVIPGLRSSTFYNITVCPVLGDIEGTPGFLQVHTPPVPVSDFRVTVVSTTEIGLAWSSHDAESFQMHITQEGAGNSRVEITTNQSIIIGGLFPGTKYCFEIVPKGPNGTEGASRTVCNRTVPSAVFDIHVVYVTTTEMWLDWKSPDGASEYVYHLVIESKHGSNHTSTYDKAITLQGLIPGTLYNITISPEVDHVWGDPNSTAQYTRPSNVSNIDVSTNTTAATLSWQNFDDASPTYSYCLLIEKAGNSSNATQVVTDIGITDATVTELIPGSSYTVEIFAQVGDGIKSLEPGRKSFCTDPASMASFDCEVVPKEPALVLKWTCPPGANAGFELEVSSGAWNNATHLESCSSENGTEYRTEVTYLNFSTSYNISITTVSCGKMAAPTRNTCTTGITDPPPPDGSPNITSVSHNSVKVKFSGFEASHGPIKAYAVILTTGEAGHPSADVLKYTYDDFKKGASDTYVTYLIRTEEKGRSQSLSEVLKYEIDVGNESTTLGYYNGKLEPLGSYRACVAGFTNITFHPQNKGLIDGAESYVSFSRYSDAVSLPQDPGVICGAVFGCIFGALVIVTVGGFIFWRKKRKDAKNNEVSFSQIKPKKSKLIRVENFEAYFKKQQADSNCGFAEEYEDLKLVGISQPKYAAELAENRGKNRYNNVLPYDISRVKLSVQTHSTDDYINANYMPGYHSKKDFIATQGPLPNTLKDFWRMVWEKNVYAIIMLTKCVEQGRTKCEEYWPSKQAQDYGDITVAMTSEIVLPEWTIRDFTVKNIQTSESHPLRQFHFTSWPDHGVPDTTDLLINFRYLVRDYMKQSPPESPILVHCSAGVGRTGTFIAIDRLIYQIENENTVDVYGIVYDLRMHRPLMVQTEDQYVFLNQCVLDIVRSQKDSKVDLIYQNTTAMTIYENLAPVTTFGKTNGYIA
phosphorylation of Tyr^1230, Tyr^1234 and Tyr^1235 of Met (phospho-specific antibodies) [1]: a gradual decrease in the level of phosphorylation of the activation loop tyrosine residues was observed with increasing expression of wild type DEP-1 | phosphorylation of Tyr^1349 of Met (phospho-specific antibody) [1]: Tyr^1349 was nearly completely dephosphorylated in the presence of low levels of DEP-1 | phosphorylation of Tyr^1365 of Met (phospho-specific antibody) [1]: Tyr^1365 was nearly completely dephosphorylated in the presence of low levels of DEP-1

B3: MBP.DEP-1(DA) (enzyme, not shown: large carriers; small tags and cut ends)
chain: RKKRKDAKNNEVSFSQIKPKKSKLIRVENFEAYFKKQQADSNCGFAEEYEDLKLVGISQPKYAAELAENRGKNRYNNVLPYDISRVKLSVQTHSTDDYINANYMPGYHSKKDFIATQGPLPNTLKDFWRMVWEKNVYAIIMLTKCVEQGRTKCEEYWPSKQAQDYGDITVAMTSEIVLPEWTIRDFTVKNIQTSESHPLRQFHFTSWPAHGVPDTTDLLINFRYLVRDYMKQSPPESPILVHCSAGVGRTGTFIAIDRLIYQIENENTVDVYGIVYDLRMHRPLMVQTEDQYVFLNQCVLDIVRSQKDSKVDLIYQNTTAMTIYENLAPVTTFGKTNGYIA
notes: also called DEP-1 substrate-trapping mutant (DA); DEP-1(DA) cytoplasmic domain fusion protein
binding result [2]: no binding (tested: 1 µg fusion protein to 500 µg lysate)

B4: MBP.DEP-1 (enzyme, not shown: large carriers)
chain: RKKRKDAKNNEVSFSQIKPKKSKLIRVENFEAYFKKQQADSNCGFAEEYEDLKLVGISQPKYAAELAENRGKNRYNNVLPYDISRVKLSVQTHSTDDYINANYMPGYHSKKDFIATQGPLPNTLKDFWRMVWEKNVYAIIMLTKCVEQGRTKCEEYWPSKQAQDYGDITVAMTSEIVLPEWTIRDFTVKNIQTSESHPLRQFHFTSWPDHGVPDTTDLLINFRYLVRDYMKQSPPESPILVHCSAGVGRTGTFIAIDRLIYQIENENTVDVYGIVYDLRMHRPLMVQTEDQYVFLNQCVLDIVRSQKDSKVDLIYQNTTAMTIYENLAPVTTFGKTNGYIA
notes: also called wild type DEP-1 (MBP-DEP-1); wildtype DEP-1 fusion protein
binding result [3]: no binding (tested: 1 µg fusion protein to 500 µg lysate)
